Test results: US20240148882A1 (University of California, published 2024)
Each block holds one binder with its values, some of them ahead of it.

Experiments:
[1] = biological target: T1, VEGF165 (human, UniProt P15692 27-191); assay: competition ELISA (unbound VEGF); multivalent HyA conjugate
T1 chain: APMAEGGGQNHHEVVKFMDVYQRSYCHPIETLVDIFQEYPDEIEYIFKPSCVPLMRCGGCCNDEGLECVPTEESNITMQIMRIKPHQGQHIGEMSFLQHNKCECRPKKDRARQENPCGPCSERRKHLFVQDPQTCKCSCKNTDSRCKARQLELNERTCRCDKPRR

[2] = biological target: T1, VEGF165; assay: ELISA; multivalent CMC conjugate
[3] = biological target: T2, VEGF165 (human, UniProt P15692-4 27-191); assay: binding competition ELISA (VEGF165 Quantikine): free VEGF165 captured by the plate antibody
T2 construct: Treated as one molecule; also called VEGF-A165; human VEGF-A165
Experimental: The mvsFlt conjugates were analyzed using a VEGF₁₆₅ Quantikine Sandwich ELISA (R&D Systems) to examine the effect of HyA conjugation on sFlt inhibition of VEGF₁₆₅. The assay was carried out according to the manufacturer's instructions. Briefly, VEGF₁₆₅ was added to PBS with varying concentrations of sFlt or mysFlt. Free VEGF₁₆₅ that bound to the capture antibodies on the plate surface were detected using a horseradish peroxidase conjugated detection antibody and quantified using a spectrophotometer at 450 nm.

[4] = biological target: T2, VEGF165; assay: cell-based or functional assay
[5] = biological target: soluble fms-like tyrosine kinase-1 (sFlt), unconjugated (UniProt P17948); assay: cell-based or functional assay
[6] = biological target: T3, mvsFlt 650 kDa LCR (multivalent sFlt-hyaluronic acid conjugate, low conjugation ratio), P17948
T3 chain: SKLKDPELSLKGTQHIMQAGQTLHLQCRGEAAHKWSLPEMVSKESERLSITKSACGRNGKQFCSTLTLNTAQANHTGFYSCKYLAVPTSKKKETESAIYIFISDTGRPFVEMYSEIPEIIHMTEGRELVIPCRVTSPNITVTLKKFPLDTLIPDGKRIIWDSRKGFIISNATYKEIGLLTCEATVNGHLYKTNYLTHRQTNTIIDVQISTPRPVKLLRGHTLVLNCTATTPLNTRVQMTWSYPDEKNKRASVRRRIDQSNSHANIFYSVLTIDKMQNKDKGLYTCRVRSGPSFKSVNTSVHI

[7] = biological target: T1, VEGF165; assay: competition ELISA (unbound VEGF)
[8] = biological target: T1, VEGF165; assay: ELISA

B1: conjugated multivalent VHH anti-VEGF antibody (28 VHH per 860 kDa hyaluronic acid) (other)
VHH: SNADVQLVESGGGLVQPGGSLRLSCAASGRTFSSYSMGWFRQAPGKEREFVVAISKGGYKYDAVSLEGRFTISRDNAKNTVYLQINSLRPEDTAVYYCASSRAYGSSRLRLADTYEYWGQGTLVTVSSSPSTPPTPSPSTPPGGCDDDDKHHHHHH
modifications: covalently conjugated to 860 kDa hyaluronic acid
- IC50 [1]: 812 nM

B2: anti-VEGF VHH-CMC conjugate (~17 VHH per ~700 kDa carboxymethylcellulose) (other)
VHH: B1 VHH
modifications: covalently conjugated to ~700 kDa carboxymethylcellulose
- IC50 [2]: 8800 nM

B5: mvsFlt 1 MDa HCR (multivalent sFlt-hyaluronic acid conjugate, high conjugation ratio) (other, UniProt P17948 27-328, looked up)
chain: T3 chain
modifications: thiolated with 2-iminothiolane and linked through EMCH maleimide to 1 MDa hyaluronic acid
notes: domain: first 3 Ig-like extracellular domains; Protein-polymer conjugate; 30:1 sFlt:HyA feed ratio; final sFlt:HyA 14.1 by SEC-MALS; not shown: tag implied by Ni-NTA purification, not described
- IC50 [3]: 0.0033 µg/mL
- IC50, HUVEC Survival [4]: 0.0454 µg/mL

B7: mvsFlt 1 MDa LCR (multivalent sFlt-hyaluronic acid conjugate, low conjugation ratio) (other, UniProt P17948 27-328, looked up)
chain: T3 chain
modifications: thiolated with 2-iminothiolane and linked through EMCH maleimide to 1 MDa hyaluronic acid
notes: domain: first 3 Ig-like extracellular domains; Protein-polymer conjugate; 10:1 sFlt:HyA feed ratio; final sFlt:HyA 5.2 by SEC-MALS; not shown: tag implied by Ni-NTA purification, not described
- IC50 [3]: 0.0022 µg/mL
- IC50, HUVEC Survival [4]: 0.0449 µg/mL

B10: matrix metalloproteinase-7 (MMP-7) (protein)
chain: YSLFPNSPKWTSKVVTYRIVSYTRDLPHITVDRLVSKALNMWGKEIPLHFRKVVWGTADIMIGFARGAHGDSYPFDGPGNTLAHAFAPGTGLGGDAHFDEDERWTDGSSLGINFLYAATHELGHSLGMGHSSDPNAVMYPTYGNGDPQNFKLSQDDIKGIQKLYGKRSNSRKK
- protein remaining detectable after 12 h with MMP-7 at 1:1 molar ratio of MMP-7 to sFlt (SDS-PAGE, silver stain) [5]: 6.8%
- protein remaining detectable after 12 h with MMP-7 at 1:4 molar ratio of MMP-7 to sFlt (SDS-PAGE, silver stain) [5]: 34%
- protein remaining detectable after 12 h with MMP-7 at 1:1 molar ratio of MMP-7 to sFlt (SDS-PAGE, silver stain) [6]: 34.8±1.8% of mvsFlt
- protein remaining detectable after 12 h with MMP-7 at 1:4 molar ratio of MMP-7 to sFlt (SDS-PAGE, silver stain) [6]: detectable mvsFlt at 74.8±4.9%

B11: conjugated multivalent scFv anti-VEGF antibody (31 scFv per 860 kDa hyaluronic acid) (other)
scFv: MEIVMTQSPSTLSASVGDRVIITCQASEIIHSWLAWYQQKPGKAPKLLIYLASTLASGVPSRFSGSGSGAEFTLTISSLQPDDFATYYCQNVYLASTNGANFGQGTKLTVLGGGGGSGGGGSGGGGSGGGGSEVQLVESGGGLVQPGGSLRLSCTASGFSLTDYYYMTWVRQAPGKGLEWVGFIDPDDDPYYATWAKGRFTISRDNSKNTLYLQMNSLRAEDTAVYYCAGGDHNSGWGLDIWGQGTLVTVSSSPSTPPTPSPSTPPGGCDDDDKHHHHHH
modifications: covalently conjugated to 860 kDa hyaluronic acid
- IC50 [1]: 47.7 nM

Second part, led by results:

- IC50 [3]: 0.0038 µg/mL
B3: soluble fms-like tyrosine kinase-1 (sFlt), unconjugated (receptor, UniProt P17948 27-328, looked up)
chain: T3 chain
notes: domain: first 3 Ig-like extracellular domains; Expressed in High Five insect cells, about 50 kDa; also called recombinant sFlt; soluble Flt-1 receptor; not shown: tag implied by Ni-NTA purification, not described for the tested protein (the ex)
- IC50, HUVEC Survival [4]: 0.0393 µg/mL

- IC50 [3]: 0.0039 µg/mL
B4: mvsFlt 650 kDa LCR (multivalent sFlt-hyaluronic acid conjugate, low conjugation ratio) (other, UniProt P17948 27-328, looked up)
chain: T3 chain
modifications: thiolated with 2-iminothiolane and linked through EMCH maleimide to 650 kDa hyaluronic acid
notes: domain: first 3 Ig-like extracellular domains; Protein-polymer conjugate; 10:1 sFlt:HyA feed ratio; final sFlt:HyA 5.3 by SEC-MALS; also called 650 kDa LCR mvsFlt; not shown: tag implied by Ni-NTA purification, not described
- IC50, HUVEC Survival [4]: 0.0417 µg/mL

- IC50 [3]: 0.002 µg/mL
B6: mvsFlt 650 kDa HCR (multivalent sFlt-hyaluronic acid conjugate, high conjugation ratio) (other, UniProt P17948 27-328, looked up)
chain: T3 chain
modifications: thiolated with 2-iminothiolane and linked through EMCH maleimide to 650 kDa hyaluronic acid
notes: domain: first 3 Ig-like extracellular domains; Protein-polymer conjugate; 30:1 sFlt:HyA feed ratio; final sFlt:HyA 17.1 by SEC-MALS; not shown: tag implied by Ni-NTA purification, not described
- IC50, HUVEC Survival [4]: 0.0432 µg/mL

- IC50 [3]: 0.0047 µg/mL
B8: mvsFlt 300 kDa HCR (multivalent sFlt-hyaluronic acid conjugate, high conjugation ratio) (other, UniProt P17948 27-328, looked up)
chain: T3 chain
modifications: thiolated with 2-iminothiolane and linked through EMCH maleimide to 300 kDa hyaluronic acid
notes: domain: first 3 Ig-like extracellular domains; Protein-polymer conjugate; 30:1 sFlt:HyA feed ratio; final sFlt:HyA 15.4 by SEC-MALS; not shown: tag implied by Ni-NTA purification, not described
- IC50, HUVEC Survival [4]: 0.0444 µg/mL

- IC50 [3]: 0.0045 µg/mL
B9: mvsFlt 300 kDa LCR (multivalent sFlt-hyaluronic acid conjugate, low conjugation ratio) (other, UniProt P17948 27-328, looked up)
chain: T3 chain
modifications: thiolated with 2-iminothiolane and linked through EMCH maleimide to 300 kDa hyaluronic acid
notes: domain: first 3 Ig-like extracellular domains; Protein-polymer conjugate; 10:1 sFlt:HyA feed ratio; final sFlt:HyA 7.9 by SEC-MALS; not shown: tag implied by Ni-NTA purification, not described
- IC50, HUVEC Survival [4]: 0.0469 µg/mL

- IC50 [7]: 89.8 nM
B12: single-chain variable fragment (scFv) anti-VEGF antibody, unconjugated (scFv)
scFv: B11 scFv

- IC50 [8]: 761 nM
- IC50 [7]: 758 nM
B13: single-domain camelid (VHH) anti-VEGF antibody, unconjugated (VHH)
VHH: DVQLVESGGGLVQPGGSLRLSCAASGRTFSSYSMGWFRQAPGKEREFVVAISKGGYKYDAVSLEGRFTISRDNAKNTVYLQINSLRPEDTAVYYCASSRAYGSSRLRLADTYEYWGQGTLVTVSS
